# Measurements from publication PMC9884874 (Journal for Immunotherapy of Cancer, 2023).
# B1: CCN1: recombinant CCN1, a secreted matricellular protein, added to macrophages (protein, UniProt O00622 25-381, looked up)
# CCN family member 1: TCPAACHCPLEAPKCAPGVGLVRDGCGCCKVCAKQLNEDCSKTQPCDHTKGLECNFGASSTALKGICRAQSEGRPCEYNSRIYQNGESFQPNCKHQCTCIDGAVGCIPLCPQELSLPNLGCPNPRLVKVTGQCCEEWVCDEDSIKDPMEDQDGLLGKELGFDASEVELTRNNELIAVGKGSSLKRLPVFGMEPRILYNPLQGQKCIVQTTSWSQCSKTCGTGISTRVTNDNPECRLVKETRICEVRPCGQPVYSSLKKGKKCSKTKKSPEPVRFTYAGCLSVKKYRPKYCGSCVDGRCCTPQLTRTVKMRFRCEDGETFSKNVMMIQSCKCNYNCPHANEAAFPFYRLFNDIHKFRD
# Legend:
# tumor = details: single agent or in combination with anti-PD-1 ab, mouse models; cited from earlier work
# [1] = tested on: mouse bone-marrow-derived macrophages (BMDM); experiment: uptake of pHrodo-labeled apoptotic thymocytes by BMDM; format: cell-based; details: pHrodo-labeled apoptotic thymocytes as target cells
# Ccn1 = Ccn1 mRNA level in cells; format: cell-based, mouse
# CD8+ T cells = CD8+ T cells co-cultured with MC38 CCM-educated MQ or DC; format: cell-based, mouse
# BMDM = experiment: recombinant CCN1 treatment of BMDM, CD206+ frequency; format: cell-based, mouse
# mouse peritoneal MQ = details: 100 µg/mL CCN1, direct exposure; cited from earlier work
molecule,measurement,setting,value
CCOc1ccn(-c2ccc(F)cc2)c(=O)c1C(=O)Nc1ccc(Oc2ccnc(N)c2Cl)c(F)c1 [BMS-777607],tumor-growth-inhibitory effects,tumor,excellent tumor-growth-inhibitory effects
COc1cc2nccc(Oc3ccc(NC(=O)c4cn(C(C)C)c(=O)n(-c5ccc(F)cc5)c4=O)cc3F)c2cc1OC [RXDX-106],tumor-growth-inhibitory effects,tumor,excellent tumor-growth-inhibitory effects
CCCCNc1ncc(-c2ccc(CN3CCOCC3)cn2)c(NC2CCC(O)CC2)n1 (stereo not drawn) [UNC2250],ability of phagocytosis in BMDM,[1],significantly decreased
same,mRNA level of Ccn1 in BMDM primed with MC38 culture media,Ccn1,could not decrease
B1,effect of CCN1 addition on KRCT87-mediated immune-boosting effects,CD8+ T cells; CCN1 addition to DC,could not nullify
same,"effect of CCN1 addition on KRCT87-elevated granzyme B, IFN-γ, TNF-α production",CD8+ T cells; MQ educated by MC38-CCM,completely reversed
same,frequency of M2-skewed MQ,BMDM; 10–500 ng/mL CCN1,increases
same,frequency of CD206+ BMDM,"BMDM; recombinant CCN1, concentration-dependent and in presence of MC38 CCM",increased
same,differentiation into M1-skewing MQ producing pro-inflammatory cytokines,mouse peritoneal MQ,promotes differentiation into M1-skewing MQ
